Consider eight sequences from the supplement of paper PMC5998384.

For data set [1], the system named is HeLa Kyoto. The experiment in a line: melting temperature (median over replicates), in situ; higher = more thermally stable.
Data set [2] deals with HeLa Kyoto. The data set can be described thus: solubility change mitosis vs G1/S (difference of NP-40 vs SDS log2 ratios) (log2 ratio difference); higher = more soluble in mitosis.
The test system of data set [3] is HeLa Kyoto. The experiment in a line: thermal stability score vs G1/S (z-score of summed log2 fold changes over temperatures); higher = more thermally stable than in G1/S.
In data set [4] the test system is HeLa Kyoto. The data set can be described thus: solubility in G1/S (NP-40 vs SDS abundance) (log2 ratio); higher = more soluble. To be noted: cell cycle stage: G1/S.
[5] abbreviates: cell cycle stage: early G1 (4.5 h after nocodazole release).
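Throughout, for melting temperature (median over replicates), in situ: HeLa Kyoto cells synchronized by double thymidine or nocodazole block, proteins quantified by TMT10plex mass spectrometry, three independent biological replicates.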
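Throughout, for solubility change mitosis vs G1/S (difference of NP-40 vs SDS log2 ratios): synchronized HeLa Kyoto cells (double thymidine block for G1/S, nocodazole release for mitosis), protein amounts in NP-40 versus SDS lysates quantified by mass spectrometry, three biological replicates.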
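Throughout, for solubility in G1/S (NP-40 vs SDS abundance): HeLa Kyoto cells arrested at G1/S by double thymidine block, proteins quantified by TMT10plex mass spectrometry in mild NP-40 versus SDS extracts, three biological replicates.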
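Throughout, for thermal stability score vs G1/S (z-score of summed log2 fold changes over temperatures): synchronized HeLa Kyoto cells, proteins quantified by TMT10plex mass spectrometry, three biological replicates, mitosis taken 0.5 h after nocodazole release, G1/S directly after double thymidine block.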

As for “MAGPVSLRDLLMGASAWMGSESPGGSPTEGGGSAAGGPEPPWREDEICVVGIFGKTALRLNSEKFSLVNTVCDRQVFPLFRHQDPGDPGPGIRTEAGAVGEAGGAEDPGAAAGGSVRGSGAVAEGNRTEAGSQDYSLLQAYYSQESKVLYLLLTSICDNSQLLRACRALQSGEAGGGLSLPHAEAHEFWKHQEKLQCLSLLYLFSVCHILLLVHPTCSFDITYDRVFRALDGLRQKVLPLLKTAIKDCPVGKDWKLNCRPCPPRLLFLFQLNGALKVEPPRNQDPAHPDKPKKHSPKRRLQHALEDQIYRIFRKSRVLTNQSINCLFTVPANQAFVYIVPGSQEEDPVGMLLDQLRSHCTVKDPESLLVPAPLSGPRRYQVMRQHSRQQLSFHIDSSSSSSSGQLVDFTLREFLWQHVELVLSKKGFDDSVGRNPQPSHFELPTYQKWISAASKLYEVAIDGKEEDLGSPTGELTSKILSSIKVLEGFLDIDTKFSENRCQKALPMAHSAYQSNLPHNYTMTVHKNQLAQALRVYSQHARGPAFHKYAMQLHEDCYKFWSNGHQLCEERSLTDQHCVHKFHSLPKSGEKPEADRNPPVLYHNSRARSTGACNCGRKQAPRDDPFDIKAANYDFYQLLEEKCCGKLDHINFPVFEPSTPDPAPAKNESSPAPPDSDADKLKEKEPQTQGESTSLSLALSLGQSTDSLGTYPADPQAGGDNPEVHGQVEVKTEKRPNFVDRQASTVEYLPGMLHSNCPKGLLPKFSSWSLVKLGPAKSYNFHTGLDQQGFIPGTNYLMPWDIVIRTRAEDEGDLDTNSWPAPNKAIPGKRSAVVMGRGRRRDDIARAFVGFEYEDSRGRRFMCSGPDKVMKVMGSGPKESALKALNSDMPLYILSSSQGRGLKPHYAQLMRLFVVVPDAPLQIILMPQVQPGPPPCPVFYPEKQEITLPPDGLWVLRFPYAYVTERGPCFPPKENVQLMSYKVLRGVLKAVTQ [SMG8]”, the melting temperature in the data set with HeLa Kyoto [1] (cell cycle stage: G1/S) turned out to be 49.4 °C; in the data set with HeLa Kyoto [1] (cell cycle stage: mitosis) it was 48.5 °C. Also, the “solubility change mitosis (log2)” value with HeLa Kyoto [2] is -0.0473. In addition, the figures for the thermal stability score in the data set with HeLa Kyoto [3] (setting [5]) and in the data set with HeLa Kyoto [3] (cell cycle stage: mitosis) were 0.364 and 0.79, respectively. Further, the “solubility in G1/S (log2)” value in the data set on HeLa Kyoto [4] stood at 0.118.
“MAGSEQQRPRRRDDGDSDAAAAAAAPLQDAELALAGINMLLNNGFRESDQLFKQYRNHSPLMSFGASFVSFLNAMMTFEEEKMQLACDDLKTTEKLCESEEAGVIETIKNKIKKNVDVRKSAPSMVDRLQRQIIIADCQVYLAVLSFVKQELSAYIKGGWILRKAWKIYNKCYLDINALQELYQKKLTEESLTSDAANDNHIVAEGVSEESLNRLKGAVSFGYGLFHLCISMVPPNLLKIINLLGFPGDRLQGLSSLMYASESKDMKAPLATLALLWYHTVVRPFFALDGSDNKAGLDEAKEILLKKEAAYPNSSLFMFFKGRIQRLECQINSALTSFHTALELAVDQREIQHVCLYEIGWCSMIELNFKDAFDSFERLKNESRWSQCYYAYLTAVCQGATGDVDGAQIVFKEVQKLFKRKNNQIEQFSVKKAERFRKQTPTKALCVLASIEVLYLWKALPNCSFPNLQRMSQACHEVDDSSVVGLKYLLLGAIHKCLGNSEDAVQYFQRAVKDELCRQNNLYVQPYACYELGCLLLDKPETVGRGRALLLQAKEDFSGYDFENRLHVRIHAALASLRELVPQ [TTC39C]”: the melting temperature in the data set on HeLa Kyoto [1] (cell cycle stage: G1/S) came to 53.6 °C; in the data set on HeLa Kyoto [1] (cell cycle stage: mitosis) it was 52.6 °C. Besides, in the data set on HeLa Kyoto [2], the “solubility change mitosis (log2)” value is -0.00412. Moreover, the thermal stability score is -1.01 in the data set on HeLa Kyoto [3] (setting [5]) and -2.55 with HeLa Kyoto [3] (cell cycle stage: mitosis). In addition, the “solubility in G1/S (log2)” value in the data set on HeLa Kyoto [4] is -0.0737.
As for “MAGSRLPRQLFLQGVAAVFMFAFASLYTQIPGLYGPEGILPARRTLRPQGKGRWQQLWETPTLLWEAPRLGLDTAQGLELLSLLGALVALGALLLSPLRHPVIYLLLWAAYLSACQVGQVFLYFQWDSLLLETGFLAVLVAPLRPASHRKEAPQGRQAGALPHEDLPFWLVRWLLFRLMFASGVVKLTSRCPAWWGLTALTYHYETQCLPTPAAWFAHHLPVWLHKLSVVATFLIEIAVPPLFFAPIRRLRLAAFYSQVLLQVLIIITGNYNFFNLMTLVLTTALLDDQHLAAEPGHGSRKKTATSWPKALLATLSLLLELAVYGLLAYGTVHYFGLEVDWQQRTIHSRTTFTFHQFSQWLKTLTLPTVWLGVASLVWELLSALWRWTQVRGWLRKLSAVVQLSLVGTATVALFLISLVPYSYVEPGTHGRLWTGAHRLFGAVEHLQLANSYGLFRRMTGLGGRPEVVLEGSYDGHHWTEIEFMYKPGNLSRPPPVVVPHQPRLDWQMWFAALGPHTHSPWFTSLVLRLLQGKEPVIRLVQSQVARYPFHKQPPTYVRAQRYKYWFSQPGEQGQWWRRQWVEEFFPSVSLGDPTLETLLRQFGLQEKSPPRTRSANSTLAQALHWTRSQLSPLEAPALLWGLLMAVGAVRFVQALLAPCSLRSSPLAPVSGEKRRPASQKDSGAASEQATAAPNPCSSSSRTTRRKK [LMF2]”, the melting temperature in the data set with HeLa Kyoto [1] (cell cycle stage: G1/S) came out at 51.9 °C; in the data set with HeLa Kyoto [1] (cell cycle stage: mitosis) it was 52.8 °C. Besides, the “solubility change mitosis (log2)” value in the data set with HeLa Kyoto [2] was -0.0691. Also, the thermal stability score in the data set with HeLa Kyoto [3] (setting [5]) was -0.462; in the data set with HeLa Kyoto [3] (cell cycle stage: mitosis), -1.11. Further, the “solubility in G1/S (log2)” value in the data set with HeLa Kyoto [4] was -0.171.
With “MAGSVADSDAVVKLDDGHLNNSLSSPVQADVYFPRLIVPFCGHIKGGMRPGKKVLVMGIVDLNPESFAISLTCGDSEDPPADVAIELKAVFTDRQLLRNSCISGERGEEQSAIPYFPFIPDQPFRVEILCEHPRFRVFVDGHQLFDFYHRIQTLSAIDTIKINGDLQITKLG [LGALSL]”, the melting temperature turned out to be 53.3 °C in the data set with HeLa Kyoto [1] (cell cycle stage: G1/S) and 54 °C in the data set on HeLa Kyoto [1] (cell cycle stage: mitosis). Also, the “solubility change mitosis (log2)” value in the data set with HeLa Kyoto [2] was -0.16. In addition, the figures for the thermal stability score in the data set on HeLa Kyoto [3] (setting [5]) and in the data set with HeLa Kyoto [3] (cell cycle stage: mitosis) were 0.0977 and -0.222, respectively. In addition, the “solubility in G1/S (log2)” value with HeLa Kyoto [4] came out at 0.36.
Consider “MAGSYPEGAPAILADKRQQFGSRFLSDPARVFHHNAWDNVEWSEEQAAAAERKVQENSIQRVCQEKQVDYEINAHKYWNDFYKIHENGFFKDRHWLFTEFPELAPSQNQNHLKDWFLENKSEVCECRNNEDGPGLIMEEQHKCSSKSLEHKTQTPPVEENVTQKISDLEICADEFPGSSATYRILEVGCGVGNTVFPILQTNNDPGLFVYCCDFSSTAIELVQTNSEYDPSRCFAFVHDLCDEEKSYPVPKGSLDIIILIFVLSAVVPDKMQKAINRLSRLLKPGGMVLLRDYGRYDMAQLRFKKGQCLSGNFYVRGDGTRVYFFTQEELDTLFTTAGLEKVQNLVDRRLQVNRGKQLTMYRVWIQCKYCKPLLSSTS [METTL2B]”, for which the results for the melting temperature in the data set with HeLa Kyoto [1] (cell cycle stage: G1/S) and in the data set on HeLa Kyoto [1] (cell cycle stage: mitosis) were 48.6 °C and 48.9 °C, respectively. Further, the “solubility change mitosis (log2)” value in the data set with HeLa Kyoto [2] is -0.231. Besides, the thermal stability score is -0.391 with HeLa Kyoto [3] (setting [5]) and 1.29 in the data set with HeLa Kyoto [3] (cell cycle stage: mitosis). Also, the “solubility in G1/S (log2)” value with HeLa Kyoto [4] stood at 0.19.
“MAGYKPVAIQTYPILGEKITQDTLYWNNYKTPVQIKEFGAVSKVDFSPQPPYNYAVTASSRIHIYGRYSQEPIKTFSRFKDTAYCATFRQDGRLLVAGSEDGGVQLFDISGRAPLRQFEGHTKAVHTVDFTADKYHVVSGADDYTVKLWDIPNSKEILTFKEHSDYVRCGCASKLNPDLFITGSYDHTVKMFDARTSESVLSVEHGQPVESVLLFPSGGLLVSAGGRYVKVWDMLKGGQLLVSLKNHHKTVTCLCLSSSGQRLLSGSLDRKVKVYSTTSYKVVHSFDYAASILSLALAHEDETIVVGMTNGILSVKHRKSEAKKESLPRRRRPAYRTFIKGKNYMKQRDDILINRPAKKHLELYDRDLKHFRISKALDRVLDPTCTIKTPEITVSIIKELNRRGVLANALAGRDEKEISHVLNFLIRNLSQPRFAPVLINAAEIIIDIYLPVIGQSPVVDKKFLLLQGLVEKEIDYQRELLETLGMMDMLFATMRRKEGTSVLEHTSDGFPENKKIES [UTP15]”: the melting temperature in the data set on HeLa Kyoto [1] (cell cycle stage: G1/S) amounted to 52.6 °C; in the data set with HeLa Kyoto [1] (cell cycle stage: mitosis), 50.9 °C. Besides, the “solubility change mitosis (log2)” value in the data set with HeLa Kyoto [2] came out at 0.558. In addition, the thermal stability score in the data set on HeLa Kyoto [3] (setting [5]) is -0.279; in the data set with HeLa Kyoto [3] (cell cycle stage: mitosis), -3.5. Further, the “solubility in G1/S (log2)” value in the data set with HeLa Kyoto [4] was -1.23.
On to “MAHAPARCPSARGSGDGEMGKPRNVALITGITGQDGSYLAEFLLEKGYEVHGIVRRSSSFNTGRIEHLYKNPQAHIEGNMKLHYGDLTDSTCLVKIINEVKPTEIYNLGAQSHVKISFDLAEYTADVDGVGTLRLLDAVKTCGLINSVKFYQASTSELYGKVQEIPQKETTPFYPRSPYGAAKLYAYWIVVNFREAYNLFAVNGILFNHESPRRGANFVTRKISRSVAKIYLGQLECFSLGNLDAKRDWGHAKDYVEAMWLMLQNDEPEDFVIATGEVHSVREFVEKSFLHIGKTIVWEGKNENEVGRCKETGKVHVTVDLKYYRPTEVDFLQGDCTKAKQKLNWKPRVAFDELVREMVHADVELMRTNPNA [GMDS]”, for which the results for the melting temperature in the data set on HeLa Kyoto [1] (cell cycle stage: G1/S) and in the data set on HeLa Kyoto [1] (cell cycle stage: mitosis) were 56.4 °C and 57.4 °C, respectively. The “solubility change mitosis (log2)” value with HeLa Kyoto [2] was -0.00656. For the same sequence, the thermal stability score was -0.0264 in the data set with HeLa Kyoto [3] (setting [5]) and -1.35 with HeLa Kyoto [3] (cell cycle stage: mitosis). The “solubility in G1/S (log2)” value in the data set on HeLa Kyoto [4] is -0.249.
For the sequence “MAHCVTLVQLSISCDHLIDKDIGSKSDPLCVLLQDVGGGSWAELGRTERVRNCSSPEFSKTLQLEYRFETVQKLRFGIYDIDNKTPELRDDDFLGGAECSLGQIVSSQVLTLPLMLKPGKPAGRGTITVSAQELKDNRVVTMEVEARNLDKKDFLGKSDPFLEFFRQGDGKWHLVYRSEVIKNNLNPTWKRFSVPVQHFCGGNPSTPIQVQCSDYDSDGSHDLIGTFHTSLAQLQAVPAEFECIHPEKQQKKKSYKNSGTIRVKICRVETEYSFLDYVMGGCQINFTVGVDFTGSNGDPSSPDSLHYLSPTGVNEYLMALWSVGSVVQDYDSDKLFPAFGFGAQVPPDWQVSHEFALNFNPSNPYCAGIQGIVDAYRQALPQVRLYGPTNFAPIINHVARFAAQAAHQGTASQYFMLLLLTDGAVTDVEATREAVVRASNLPMSVIIVGVGGADFEAMEQLDADGGPLHTRSGQAAARDIVQFVPYRRFQNAPREALAQTVLAEVPTQLVSYFRAQGWAPLKPLPPSAKDPAQAPQA [CPNE1]”, the melting temperature in the data set with HeLa Kyoto [1] (cell cycle stage: G1/S) came out at 52 °C; in the data set on HeLa Kyoto [1] (cell cycle stage: mitosis), 51.9 °C. Besides, in the data set on HeLa Kyoto [2], the “solubility change mitosis (log2)” value was -0.134. Besides, the thermal stability score is 0.0462 in the data set with HeLa Kyoto [3] (setting [5]) and 0.0377 in the data set on HeLa Kyoto [3] (cell cycle stage: mitosis). Also, the “solubility in G1/S (log2)” value in the data set on HeLa Kyoto [4] came to 0.146.
